# From the RNAGym collection of RNA variant scans (doi:10.7554/elife.80360)
# B1: CPEB3 Ribozyme (parent)
# chain: GGGGGCCACAGCAGAAGCGUUCACGUCGCGGCCCCUGUCAGAUUCUGGUGAAUCUGCGAAUUCUGCUGU
# Variants of: B1
# Assay: self-cleavage, relative activity (ratio to wild type); higher = more cleavage; co-transcriptional
row,Variant,self-cleavage
1,C7A U55A,0.333
2,C7A U55C,0.208
3,C7A U55G,0.194
4,C7A U61C,0.232
5,C7A U61G,0.378
6,C7A U62A,0.275
7,C7A U62C,0.269
8,C7A U64A,0.359
9,C7A U64G,0.355
10,C7A U67C,0.807
11,C7A U69A,0.875
12,C7A U69G,0.897
13,C7G,0.497
14,C7G A8C,0.514
15,C7G A8G,0.346
16,C7G A8U,0.614
17,C7G A10C,0.703
18,C7G A10G,0.671
19,C7G A10U,0.683
20,C7G A13G,0.238
21,C7G A13U,0.122

row,Variant,self-cleavage
1,C7G A15C,0.0463
2,C7G A15G,0.248
3,C7G A16C,0.0882
4,C7G A16G,0.329
5,C7G A16U,0.0326
6,C7G A23C,0.319
7,C7G A40G,0.376
8,C7G A40U,0.161
9,C7G A42C,0.198
10,C7G A42G,0.306
11,C7G A51C,0.306
12,C7G A51G,0.455
13,C7G A51U,0.34
14,C7G A52C,0.42
15,C7G A52U,0.301
16,C7G A59G,0.307
17,C7G A60G,0.175
18,C7G A60U,0.187
19,C7G C9A,0.898
20,C7G C9G,0.966
21,C7G C18G,0.116

row,Variant,self-cleavage
1,C7G C18U,0.107
2,C7G C22U,0.128
3,C7G C24G,0.0776
4,C7G C24U,0.107
5,C7G C27G,0.112
6,C7G C27U,0.0215
7,C7G C32G,0.106
8,C7G C32U,0.177
9,C7G C33A,0.147
10,C7G C33G,0.146
11,C7G C34A,0.109
12,C7G C34G,0.0956
13,C7G C34U,0.325
14,C7G C35G,0.0899
15,C7G C35U,0.248
16,C7G C39A,0.141
17,C7G C39G,0.236
18,C7G C39U,0.326
19,C7G C45A,0.378
20,C7G C45G,0.295
21,C7G C45U,0.425

row,Variant,self-cleavage
1,C7G C54A,0.138
2,C7G C54G,0.17
3,C7G C54U,0.507
4,C7G C57G,0.189
5,C7G C57U,0.158
6,C7G C63A,0.237
7,C7G C63G,0.113
8,C7G C63U,0.316
9,C7G C66A,0.134
10,C7G C66G,0.176
11,C7G C66U,0.459
12,C7G G11A,0.281
13,C7G G14C,0.0631
14,C7G G14U,0.0864
15,C7G G17A,0.11
16,C7G G19A,0.0606
17,C7G G19U,0.0728
18,C7G G25C,0.0905
19,C7G G25U,0.0759
20,C7G G28U,0.0797
